# Measurements as given in US20240261333A1 (published 2024).
# T1: PSMA3 (human, UniProt P25788 2-255)
# T1 construct: also called NP_002779.1 (+1)
# T1 sequence (looked up): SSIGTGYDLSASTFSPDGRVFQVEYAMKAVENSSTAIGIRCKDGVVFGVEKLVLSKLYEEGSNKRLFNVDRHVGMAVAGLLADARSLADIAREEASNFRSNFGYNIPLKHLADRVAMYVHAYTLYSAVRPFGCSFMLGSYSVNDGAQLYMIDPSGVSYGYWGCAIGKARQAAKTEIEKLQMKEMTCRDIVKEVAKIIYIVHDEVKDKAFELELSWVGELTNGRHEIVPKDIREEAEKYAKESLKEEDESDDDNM
# T2: SRSF6 (human, UniProt Q13247 1-344)
# T2 construct: also called NP_006266.2
# T2 sequence (looked up): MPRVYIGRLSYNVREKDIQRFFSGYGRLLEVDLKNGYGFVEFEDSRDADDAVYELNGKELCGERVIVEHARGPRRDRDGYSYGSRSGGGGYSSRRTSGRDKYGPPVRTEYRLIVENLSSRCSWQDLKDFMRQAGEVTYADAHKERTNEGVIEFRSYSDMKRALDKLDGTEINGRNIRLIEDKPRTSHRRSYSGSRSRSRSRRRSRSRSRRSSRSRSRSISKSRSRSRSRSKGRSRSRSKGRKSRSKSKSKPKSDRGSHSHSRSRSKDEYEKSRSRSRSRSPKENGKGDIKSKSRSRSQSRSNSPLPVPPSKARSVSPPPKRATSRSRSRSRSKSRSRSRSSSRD
# T3: PUF60 (human, UniProt Q9UHX1 1-559, limits assumed)
# T3 construct: also called NP_016868724.1
# T3 sequence (looked up): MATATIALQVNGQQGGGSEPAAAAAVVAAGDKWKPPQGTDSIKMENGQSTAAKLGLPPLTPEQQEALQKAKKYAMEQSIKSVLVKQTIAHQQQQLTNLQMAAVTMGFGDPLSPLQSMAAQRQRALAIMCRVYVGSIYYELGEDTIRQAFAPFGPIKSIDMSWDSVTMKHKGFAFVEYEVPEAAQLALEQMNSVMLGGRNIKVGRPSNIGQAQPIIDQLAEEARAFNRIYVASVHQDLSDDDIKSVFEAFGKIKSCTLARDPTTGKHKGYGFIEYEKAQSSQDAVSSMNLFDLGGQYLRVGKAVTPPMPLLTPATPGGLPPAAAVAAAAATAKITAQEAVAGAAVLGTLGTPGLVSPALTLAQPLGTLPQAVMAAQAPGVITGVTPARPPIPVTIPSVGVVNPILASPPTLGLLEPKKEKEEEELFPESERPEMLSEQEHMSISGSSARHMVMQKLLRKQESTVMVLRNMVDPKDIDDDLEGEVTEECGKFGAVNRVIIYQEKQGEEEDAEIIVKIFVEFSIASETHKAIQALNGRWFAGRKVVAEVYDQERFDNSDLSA
# T4: SBSN (human, UniProt Q6UWP8 26-590)
# T4 construct: also called NP_00159506.1 (+2)
# T4 sequence (looked up): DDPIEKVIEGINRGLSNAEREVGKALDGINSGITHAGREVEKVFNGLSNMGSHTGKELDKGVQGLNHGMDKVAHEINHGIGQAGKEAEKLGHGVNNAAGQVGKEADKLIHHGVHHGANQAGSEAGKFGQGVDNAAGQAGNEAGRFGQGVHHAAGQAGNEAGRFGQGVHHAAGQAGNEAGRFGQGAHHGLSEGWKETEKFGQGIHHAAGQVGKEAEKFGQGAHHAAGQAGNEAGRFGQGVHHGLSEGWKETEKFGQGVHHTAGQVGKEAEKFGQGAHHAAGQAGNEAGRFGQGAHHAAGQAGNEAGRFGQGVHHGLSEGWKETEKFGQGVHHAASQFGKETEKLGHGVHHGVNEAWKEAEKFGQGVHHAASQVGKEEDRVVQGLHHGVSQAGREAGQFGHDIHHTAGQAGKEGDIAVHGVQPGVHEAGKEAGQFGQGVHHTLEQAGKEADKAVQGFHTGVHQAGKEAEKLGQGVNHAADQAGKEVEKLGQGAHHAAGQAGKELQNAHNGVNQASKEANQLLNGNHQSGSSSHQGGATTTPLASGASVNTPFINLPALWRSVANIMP
# B1: C-terminal FLAG tagged B3GNT2 (enzyme, human, UniProt Q9NY97 1-397, looked up)
# chain: MSVGRRRIKLLGILMMANVFIYFIMEVSKSSSQEKNGKGEVIIPKEKFWKISTPPEAYWNREQEKLNRQYNPILSMLTNQTGEAGRLSNISHLNYCEPDLRVTSVVTGFNNLPDRFKDFLLYLRCRNYSLLIDQPDKCAKKPFLLLAIKSLTPHFARRQAIRESWGQESNAGNQTVVRVFLLGQTPPEDNHPDLSDMLKFESEKHQDILMWNYRDTFFNLSLKEVLFLRWVSTSCPDTEFVFKGDDDVFVNTHHILNYLNSLSKTKAKDLFIGDVIHNAGPHRDKKLKYYIPEVVYSGLYPPYAGGGGFLYSGHLALRLYHITDQVHLYPIDDVYTGMCLQKLGLVPEKHKGFRTFDIEEKNKNNICSYVDLMLVHSRKPQEMIDIWSQLQSAHLKC
# notes: FLAG-tagged ORF overexpressed in cells; pulled down from lysate with mouse anti-FLAG; also called C-FLAG B3GNT2; C-term flag; not shown: C-terminal FLAG tag
# B2: C-terminal FLAG tagged B3GNT2 (enzyme, human, UniProt Q9NY97 1-397, looked up)
# chain: B1 chain
# notes: FLAG-tagged ORF overexpressed in A375 cells; pulled down from the lysate with mouse anti-FLAG; also called C-FLAG B3GNT2; C-term flag; not shown: C-terminal FLAG tag
# Tests used:
# Experiment in all cases: co-IP with anti-FLAG, C-FLAG B3GNT2, mass spectrometry
# [1] = target: T5, YBX1 (human, UniProt P67809 2-324)
# T5 construct: also called NP_004550.2
# [2] = target: T1, PSMA3
# [3] = target: P0AA25.2 (UniProt P0AA25 2-109 = thioredoxin)
# [4] = target: T2, SRSF6
# [5] = target: T3, PUF60
# [6] = target: T4, SBSN
# Chain of P0AA25.2 (P0AA25 2-109, one chain of several): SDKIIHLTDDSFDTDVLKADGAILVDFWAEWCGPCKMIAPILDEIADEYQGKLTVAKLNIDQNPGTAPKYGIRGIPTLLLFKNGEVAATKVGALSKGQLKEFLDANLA
# T5 sequence (P67809 2-324 limits assumed): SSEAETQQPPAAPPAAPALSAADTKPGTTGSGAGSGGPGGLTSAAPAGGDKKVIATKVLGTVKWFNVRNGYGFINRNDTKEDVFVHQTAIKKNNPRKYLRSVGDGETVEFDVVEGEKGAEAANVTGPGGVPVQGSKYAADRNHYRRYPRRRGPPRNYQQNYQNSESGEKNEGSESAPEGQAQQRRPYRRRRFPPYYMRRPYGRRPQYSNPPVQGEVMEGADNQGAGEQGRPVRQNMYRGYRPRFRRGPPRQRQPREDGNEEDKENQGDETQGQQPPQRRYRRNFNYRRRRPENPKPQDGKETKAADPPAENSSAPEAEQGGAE
Binder,co-IP mass spectrometry count [1],"co-IP/MS count, C-term flag [2]","co-IP/MS count, C-term flag [3]","co-IP/MS count, C-term flag [4]","co-IP/MS count, C-term flag [5]","co-IP/MS count, C-term flag [6]"
B1,9,–,–,–,–,–
B2,–,0,7,4,6,25
